Ends that are not written are not given here. * marks the point of attachment. Palmitoyl = CCCCCCCCCCCCCCCC(=O)*
B1: CXCR4 i2 loop compound 78 (peptide)
peptide: Palmitoyl-VHATNSQRPRKLLA-NH2
SMILES: CCCCCCCCCCCCCCCC(=O)N[C@H](C(=O)N[C@@H](Cc1c[nH]cn1)C(=O)N[C@@H](C)C(=O)N[C@H](C(=O)N[C@@H](CC(N)=O)C(=O)N[C@@H](CO)C(=O)N[C@@H](CCC(N)=O)C(=O)N[C@@H](CCCNC(=N)N)C(=O)N1CCC[C@H]1C(=O)N[C@@H](CCCNC(=N)N)C(=O)N[C@@H](CCCCN)C(=O)N[C@@H](CC(C)C)C(=O)N[C@@H](CC(C)C)C(=O)N[C@@H](C)C(N)=O)[C@@H](C)O)C(C)C
B2: CXCR4 i2 loop compound 79 (peptide)
peptide: Palmitoyl-HATNSQRPRKL-NH2
SMILES: CCCCCCCCCCCCCCCC(=O)N[C@@H](Cc1c[nH]cn1)C(=O)N[C@@H](C)C(=O)N[C@H](C(=O)N[C@@H](CC(N)=O)C(=O)N[C@@H](CO)C(=O)N[C@@H](CCC(N)=O)C(=O)N[C@@H](CCCNC(=N)N)C(=O)N1CCC[C@H]1C(=O)N[C@@H](CCCNC(=N)N)C(=O)N[C@@H](CCCCN)C(=O)N[C@@H](CC(C)C)C(N)=O)[C@@H](C)O
B3: CXCR4 i2 loop compound 80 (peptide)
peptide: Palmitoyl-HATNSQRPRKLLA-NH2
SMILES: CCCCCCCCCCCCCCCC(=O)N[C@@H](Cc1c[nH]cn1)C(=O)N[C@@H](C)C(=O)N[C@H](C(=O)N[C@@H](CC(N)=O)C(=O)N[C@@H](CO)C(=O)N[C@@H](CCC(N)=O)C(=O)N[C@@H](CCCNC(=N)N)C(=O)N1CCC[C@H]1C(=O)N[C@@H](CCCNC(=N)N)C(=O)N[C@@H](CCCCN)C(=O)N[C@@H](CC(C)C)C(=O)N[C@@H](CC(C)C)C(=O)N[C@@H](C)C(N)=O)[C@@H](C)O
B4: CXCR4 i2 loop compound 76 (peptide)
peptide: DRYLAIVHATNSQRPRKLL-NH2
modifications: not fully specified (N-terminus); also: second lipid on tether backbone (C31H62NC(O)- tether)

Each binder was assayed against CXCR4 receptor (human, UniProt P61073 1-352) (assay: cell-based or functional assay).
CXCR4 receptor, sequence (P61073 whole entry): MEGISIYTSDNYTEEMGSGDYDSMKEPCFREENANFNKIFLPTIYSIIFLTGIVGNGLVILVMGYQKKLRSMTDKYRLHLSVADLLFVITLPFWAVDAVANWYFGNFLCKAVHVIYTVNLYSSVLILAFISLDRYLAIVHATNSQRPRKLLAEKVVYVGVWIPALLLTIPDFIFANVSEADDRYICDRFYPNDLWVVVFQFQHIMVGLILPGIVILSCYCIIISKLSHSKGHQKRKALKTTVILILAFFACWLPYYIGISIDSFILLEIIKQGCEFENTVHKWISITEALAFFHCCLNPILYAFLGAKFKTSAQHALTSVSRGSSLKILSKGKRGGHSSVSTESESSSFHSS

Row | Binder | AUC (% of vehicle), chemotaxis, SUPB-15, 1.0 uM | Max (% of vehicle), chemotaxis, SUPB-15, 1.0 uM | Peak Ratio, chemotaxis, SUPB-15, 1.0 uM
1 | B1 | 71.8 % of vehicle | 72.3 % of vehicle | 0.2
2 | B2 | 109 % of vehicle | 110 % of vehicle | 0.2
3 | B3 | 102 % of vehicle | 69 % of vehicle | 0.2
4 | B4 |  |  | 1

— patent US20130210709A1 (ANCHOR THERAPEUTICS, published 2013)
